± gives the standard deviation.
Assay: protein stability index of a GFP-peptide fusion (GPS, HEK-293T) (PSI 1-6); higher = more stable
[1] = treatment: DMSO, c terminus: a fixed tail appended
[2] = treatment: MLN4924 1 uM, 8 h, c terminus: a fixed tail appended
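Also: 24-mer peptide tiles fused after GFP, lentivirally expressed, FACS-sorted into six equal bins by GFP/DsRed ratio, decoded by Illumina sequencing, PSI is the read-weighted mean bin number.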

Row | Sequence | protein stability index [1] | protein stability index [2] | protein stability index (treatment: DMSO, c terminus: native) | protein stability index (treatment: MLN4924 1 uM, 8 h, c terminus: native)
1 | PAGERRIYRHRIPSTICFGQGAAR [ZNF511] | 2.89 ± 0.5 | 3.22 ± 0.45 | – | –
2 | EKGEKGDRAGDASKDILLGPWDMV [SCARA5] | 4.41 ± 0.37 | 4.71 ± 0.36 | – | –
3 | VAHVESLQEKSQCALEEYVRSQYP [NR2F2] | 3.6 ± 0.28 | 3.96 ± 0.25 | – | –
4 | ATYISEVHEHDGHLYLGSFRSPFL [APMAP] | 2.37 ± 0.4 | 1.97 ± 0.14 | – | –
5 | DPDGKKIKQIQQLFEEILSNSRQL [FBXO33] | 2.54 ± 0.41 | 2.77 ± 0.24 | – | –
6 | VWVTHEEMETLETSTKTDSEEGSW [PPFIA4] | 4.19 ± 0.29 | 4.68 ± 0.22 | – | –
7 | LWRSRVVPDREEGGSGGGGGGDED [SMAD6] | 5.36 ± 0.29 | 5.45 ± 0.14 | – | –
8 | DAEGLAARDVQKIIGDYFSDQDPR [INTS4] | 4.95 ± 0.15 | 4.86 ± 0.32 | – | –
9 | FLIGAYAVIYLKKTPEEAYRALLS [CDC14A] | 2.71 ± 0.8 | 2.7 ± 0.6 | – | –
10 | DINNNFPDLNTLLWEAEDRQNVPR [CPXM2] | 3.78 ± 0.35 | 4.15 ± 0.2 | – | –
11 | PQDGSYPRQADHDDHECCERVVIN [KCNA1] | 5.22 ± 0.41 | 5.18 ± 0.34 | – | –
12 | KDMSESQDEVPDEVENQFILRLPL [TAF7L] | 4.41 ± 0.26 | 4.85 ± 0.15 | – | –
13 | NCVLSSSPNPFPEISRGEYLYTYD [ZNF8] | 2.76 ± 0.42 | 3.01 ± 0.3 | – | –
14 | SGSLITAGRIDREELCAQSARCVV [PCDHGA10] | 3.22 ± 0.4 | 3.2 ± 0.29 | – | –
15 | AQHSLMDGYCMFNHVAVAARYAQQ [HDAC6] | 2.1 ± 0.25 | 1.92 ± 0.39 | – | –
16 | VTSNGSIGRDPPAETQPQNPPAQP [CLPTM1] | 5.41 ± 0.27 | 5.41 ± 0.15 | – | –
17 | FQILKYLFQIDVYDFMNSAFSPIV [MIA2] | 2.75 ± 0.038 | 2.85 ± 1 | – | –
18 | VDTLNVKDIAPEKQLLNSAVIAQQ [DLC1] | 4.53 ± 0.36 | 4.55 ± 0.24 | – | –
19 | ALGGLQSWRVGVVRVRQDSGAEGH [TRIM35] | 2.95 ± 0.46 | 3.31 ± 0.38 | – | –
20 | AKRNRLAPAHVDEQVFLYENARSG [ZBED1] | 4.3 ± 0.59 | 4.43 ± 0.25 | – | –
21 | MPRQISRQSSVTESTLYPNPYHQP [TPRG1] | 3.73 ± 0.34 | 3.7 ± 0.25 | – | –
22 | DPLTYKSRLMVVVKMDSSIQPGPF [RHOBTB2] | 2.05 ± 0.53 | 2.08 ± 0.25 | – | –

Row | Sequence | protein stability index [1] | protein stability index [2] | protein stability index (treatment: DMSO, c terminus: native) | protein stability index (treatment: MLN4924 1 uM, 8 h, c terminus: native)
23 | LPGNTTEATPRSLRASGSLCGPHA | 4.46 ± 0.38 | 4.28 ± 0.3 | – | –
24 | QRPFIRMSWEKEEGKSRHVDFQCV [BTBD10] | 2.95 ± 0.24 | 3.04 ± 0.37 | – | –
25 | GSGAASSSGEDKENDGFVFKMPWK [CDC25B] | 4.025 ± 0.022 | 4.37 ± 0.34 | – | –
26 | SCFLINTADRIIRVYDGREILTCG [RBBP5] | 1.91 ± 0.098 | 1.91 ± 0.27 | – | –
27 | EQLAALSQAPVNKPKKKKEKKEKE [BRD3] | 5.38 ± 0.2 | 5.67 ± 0.2 | – | –
28 | HLALHAASSGDLTCGVCALELGST [PLAGL1] | 3.01 ± 0.48 | 2.93 ± 0.24 | – | –
29 | EEITEESLEESVGKPLYLIFRNLC [INTS3] | 2.79 ± 0.58 | 2.88 ± 0.38 | – | –
30 | RDDLEALGHMFMYFLRGSLPWQGL [CSNK1G3] | 3.19 ± 0.37 | 2.93 ± 0.15 | – | –
31 | LNIYKTLKTHLIEKGILQPTLKV [CDS1] | – | – | 2.71 ± 0.94 | 2.86 ± 0.8
32 | LFQSPLFAKAGDTLSGTCLLIANK [CARM1] | 2.56 ± 0.76 | 2.81 ± 0.47 | – | –
33 | LIDEKVLILHGGVSDITDLELLDK [PPEF2] | 3.14 ± 1.5 | 3.71 ± 0.55 | – | –
34 | VAWCYYSVSLRKAERLRAELLDLK [MYORG] | 2.35 ± 0.42 | 2.15 ± 0.47 | – | –
35 | GERPEEGVAGGLNRNQGLNRLMLA [TCF25] | 3.88 ± 0.44 | 4.02 ± 0.47 | – | –
36 | QLTGHQRIHSGEEPHKCPECGKRF [ZNF449] | 4.01 ± 0.28 | 4.82 ± 0.38 | – | –
37 | EYLLSFPAGKTPVPAGEEEGELGE [VPS39] | 5.25 ± 0.43 | 5.31 ± 0.071 | – | –
38 | MLWVQRKRRRKETSECPSDKDKSP [C10orf62] | 3.2 ± 0.42 | 3.66 ± 0.43 | – | –
39 | KEKCVSLPDCCHGSELRDFPGRPM [DLC1] | 3.82 ± 0.33 | 3.76 ± 0.4 | – | –
40 | YRCIREARYTMPSSLLAPAKHLIA [PLK2] | 2.56 ± 0.54 | 2.48 ± 0.18 | – | –
41 | VRRGLAGATTLGDMIYVSGGFDGS [KLHL12] | 2.94 ± 0.56 | 2.87 ± 0.15 | – | –
42 | QRKVDGIQKAYDELRLQSEAFKKH [CCDC89] | 4.07 ± 0.19 | 4.21 ± 0.3 | – | –
43 | RATRAGAAEEPGVRGLLASLFAFK [C2CD2L] | 3.1 ± 0.75 | 3.01 ± 0.57 | – | –
44 | LAPTFSNLLLQPTTNPHTSASHRP [SMG5] | 3.55 ± 0.15 | 3.61 ± 0.26 | – | –

Row | Sequence | protein stability index [1] | protein stability index [2] | protein stability index (treatment: DMSO, c terminus: native) | protein stability index (treatment: MLN4924 1 uM, 8 h, c terminus: native)
45 | GNGVHVCNVKYKRWALLSCRGKKP [KLHDC10] | 2.73 ± 0.35 | 2.94 ± 0.27 | – | –
46 | FSFLGLLALGVSLLCNAITGITLL [PTGFR] | 2.77 ± 0.31 | 3.09 ± 0.98 | – | –
47 | VEGKCLQSGFEMLKDVKSTLEKCE [TRIM39] | 4.31 ± 0.21 | 4.41 ± 0.19 | – | –
48 | RPVILDPADPTGNLGGGDPKGWRQ [OAS1] | 4.28 ± 0.18 | 4.47 ± 0.18 | – | –
49 | ILNPHVHVIGEDAACIAYIRLTQY [CAMK2B] | 2.51 ± 0.63 | 2.31 ± 0.27 | – | –
50 | FENGQKAAVVHHFESFPAGSTLIF [TOR1AIP2] | 2.05 ± 0.42 | 2.12 ± 0.2 | – | –
51 | STSLLTSAGNRTHKARTRPKARKQ [ADAMTSL2] | 4.89 ± 0.35 | 4.92 ± 0.25 | – | –
52 | AGPNGTLFVADAYKGLFEVNPWKR [APMAP] | 2.39 ± 0.28 | 2.72 ± 0.31 | – | –
53 | TERSPGPRLQELLGPSPQRDPQAV [ZNF263] | 4.79 ± 0.2 | 4.91 ± 0.35 | – | –
54 | QEKEELRELNDRLAVYIDKVRSLE [LMNB1] | 3.72 ± 0.31 | 3.9 ± 0.2 | – | –
55 | LTLSQYILLDPILMFFIMAAMLSM [POMT2] | 3.29 ± 0.56 | 2.95 ± 0.69 | – | –
56 | LVKHWYQNCKKKLGKLPPQYALEL [OAS1] | 2.43 ± 0.83 | 2.51 ± 0.63 | – | –
57 | NTSIRVADFGSATFDHEHHTTIVA [CLK3] | 3.52 ± 0.45 | 3.27 ± 0.28 | – | –
58 | QTLDVNRDGGLCVNDLAVGLRRLG [SLC25A25] | 2.98 ± 0.23 | 3.18 ± 0.3 | – | –
59 | AGADLPPPKIRLKPHRLGDSEHEP [PWWP2B] | 4.83 ± 0.23 | 4.91 ± 0.28 | – | –
60 | PPQPMVPLAVENQAGGEGAGGELG [PBXIP1] | 5.52 ± 0.11 | 5.51 ± 0.12 | – | –
61 | EQLGSGDGIPQVYYFGPCGKYNAM [CSNK1G3] | 2.34 ± 0.14 | 2.56 ± 0.17 | – | –
62 | DPTQRILYRDVMLETFGHLLSIGP [ZNF8] | 2.21 ± 0.23 | 2.25 ± 0.22 | – | –
63 | LWEAEDRQNVPRKVPNHYIAIPEW [CPXM2] | 3 ± 0.31 | 3.02 ± 0.32 | – | –
64 | PCSEFMEPSSDPSLLGEPCAGPGF [SPAG8] | 4.15 ± 0.25 | 4.44 ± 0.28 | – | –
65 | EAGNEFKNIFGTPEFVAPEIVNYE [DAPK3] | 4.02 ± 0.1 | 4.66 ± 0.1 | – | –

Reference: the supplement of paper PMC10567573
